Reference: article PMC12214019, “Mechanistic insights into direct DNA and RNA strand transfer and dynamic protein exchange of SSB and RPA”

Legend:
RPA (yeast) [1] = target: T1, RPA (yeast) (Saccharomyces cerevisiae, UniProt P22336;P26754;P26755 1-621;1-273;1-122); assay: competition (smFRET strand transfer); from U50-RPA, 100 mM NaCl; 4.3±0.4e5 M-1 s-1; 10 mM Tris-HCl pH 7.5, 100 or 300 mM NaCl, 10% glycerol, 10 mM Trolox, 0.5% glucose, glucose oxidase/catalase, ~23 C; conditions: protein: recombinant; copies: 1;1;1
SSB [2] = target: T2, SSB (UniProt P0AGE0 2-178); assay: competition (smFRET strand transfer); from U50-SSB, 100 mM NaCl; 2.1±0.2e5 M-1 s-1; 10 mM Tris-HCl pH 7.5, 100 or 300 mM NaCl, 10% glycerol, 10 mM Trolox, 0.5% glucose, glucose oxidase/catalase, ~23 C; conditions: protein: recombinant; chain copies: 4
SSB [3] = target: T2, SSB; assay: competition (smFRET strand transfer); from dT70-SSB, 300 mM NaCl; 6.1±0.1e4 M-1 s-1; 10 mM Tris-HCl pH 7.5, 100 or 300 mM NaCl, 10% glycerol, 10 mM Trolox, 0.5% glucose, glucose oxidase/catalase, ~23 C; conditions: protein: recombinant; chain copies: 4
RPA (yeast) [4] = target: T1, RPA (yeast); assay: competition (smFRET strand transfer); from dT70-RPA, 100 mM NaCl; 9.1±0.4e4 M-1 s-1; 10 mM Tris-HCl pH 7.5, 100 or 300 mM NaCl, 10% glycerol, 10 mM Trolox, 0.5% glucose, glucose oxidase/catalase, ~23 C; conditions: protein: recombinant; copies: 1;1;1
SSB [5] = target: T2, SSB; assay: competition (smFRET strand transfer); from dT40-SSB, 100 mM NaCl; 9.8±0.2e4 M-1 s-1; 10 mM Tris-HCl pH 7.5, 100 or 300 mM NaCl, 10% glycerol, 10 mM Trolox, 0.5% glucose, glucose oxidase/catalase, ~23 C; conditions: protein: recombinant; chain copies: 4
RPA (yeast) [6] = target: T1, RPA (yeast); assay: competition (smFRET strand transfer); from dT40-RPA, 100 mM NaCl; 8.6±0.3e4 M-1 s-1; 10 mM Tris-HCl pH 7.5, 100 or 300 mM NaCl, 10% glycerol, 10 mM Trolox, 0.5% glucose, glucose oxidase/catalase, ~23 C; conditions: protein: recombinant; copies: 1;1;1
hRPA = hRPA (Homo sapiens, UniProt P27694;P15927;P35244 1-616;1-270;1-121); assay: competition (smFRET strand transfer); from dT40-hRPA, 100 mM NaCl; 8.3±0.6e4 M-1 s-1; 10 mM Tris-HCl pH 7.5, 100 or 300 mM NaCl, 10% glycerol, 10 mM Trolox, 0.5% glucose, glucose oxidase/catalase, ~23 C; conditions: protein: recombinant; copies: 1;1;1
SSB [7] = target: T2, SSB; assay: single-molecule FRET; 3 nM, ternary intermediate with dT40-SSB, dwell ~0.31 s, 100 mM NaCl; 10 mM Tris-HCl pH 7.5, 100 or 300 mM NaCl, 10% glycerol, 10 mM Trolox, 0.5% glucose, glucose oxidase/catalase, ~23 C; conditions: protein: recombinant; chain copies: 4; label: 3' Cy3
RPA (yeast) [8] = target: T1, RPA (yeast); assay: single-molecule FRET; 3 nM, ternary intermediate with dT40-RPA, dwell ~0.27 s, 100 mM NaCl; 10 mM Tris-HCl pH 7.5, 100 or 300 mM NaCl, 10% glycerol, 10 mM Trolox, 0.5% glucose, glucose oxidase/catalase, ~23 C; conditions: protein: recombinant; copies: 1;1;1; label: 3' Cy3
RPA (yeast) [9] = target: T1, RPA (yeast); assay: competition (smFRET strand transfer); 100 nM competitor from dT40-RPA; rate jumps between dT20 and dT30; 10 mM Tris-HCl pH 7.5, 100 or 300 mM NaCl, 10% glycerol, 10 mM Trolox, 0.5% glucose, glucose oxidase/catalase, ~23 C; conditions: protein: recombinant; copies: 1;1;1

T1 sequence (P22336 whole entry, chain 1 of 3): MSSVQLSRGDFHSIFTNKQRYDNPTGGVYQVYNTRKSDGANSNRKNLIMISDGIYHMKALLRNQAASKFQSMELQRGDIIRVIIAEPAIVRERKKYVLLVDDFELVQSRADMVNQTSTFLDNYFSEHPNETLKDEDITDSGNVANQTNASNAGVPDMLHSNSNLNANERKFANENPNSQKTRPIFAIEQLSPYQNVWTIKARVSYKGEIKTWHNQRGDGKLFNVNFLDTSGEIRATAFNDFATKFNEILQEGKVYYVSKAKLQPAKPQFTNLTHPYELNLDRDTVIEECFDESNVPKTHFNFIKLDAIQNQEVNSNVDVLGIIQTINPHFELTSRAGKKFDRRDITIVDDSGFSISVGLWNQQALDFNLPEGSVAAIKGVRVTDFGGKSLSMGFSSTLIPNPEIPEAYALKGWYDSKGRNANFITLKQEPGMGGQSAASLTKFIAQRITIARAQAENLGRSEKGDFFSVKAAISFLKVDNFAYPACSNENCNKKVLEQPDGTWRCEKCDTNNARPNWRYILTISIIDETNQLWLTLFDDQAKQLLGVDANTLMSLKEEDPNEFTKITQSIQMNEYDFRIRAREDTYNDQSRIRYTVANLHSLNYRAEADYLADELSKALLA
T1 sequence (P26754 whole entry, chain 2 of 3): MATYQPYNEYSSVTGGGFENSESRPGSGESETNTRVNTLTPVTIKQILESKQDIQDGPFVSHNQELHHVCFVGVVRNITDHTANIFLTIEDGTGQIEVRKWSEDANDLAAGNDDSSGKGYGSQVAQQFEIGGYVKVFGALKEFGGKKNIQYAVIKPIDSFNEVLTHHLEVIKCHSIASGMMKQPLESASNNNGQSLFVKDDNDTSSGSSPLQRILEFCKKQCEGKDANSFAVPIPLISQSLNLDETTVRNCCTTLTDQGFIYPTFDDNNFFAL
T1 sequence (P26755 whole entry, chain 3 of 3): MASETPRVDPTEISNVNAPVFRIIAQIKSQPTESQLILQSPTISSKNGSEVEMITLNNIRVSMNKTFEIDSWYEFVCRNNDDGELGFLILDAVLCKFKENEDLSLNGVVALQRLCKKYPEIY
T2 sequence (P0AGE0 2-178): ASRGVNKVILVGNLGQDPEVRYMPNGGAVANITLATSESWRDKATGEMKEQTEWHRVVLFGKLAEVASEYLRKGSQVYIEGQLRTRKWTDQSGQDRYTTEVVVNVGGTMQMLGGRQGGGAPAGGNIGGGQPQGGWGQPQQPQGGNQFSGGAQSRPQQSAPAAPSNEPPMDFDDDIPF
Chain of hRPA (P27694 whole entry, chain 1 of 3): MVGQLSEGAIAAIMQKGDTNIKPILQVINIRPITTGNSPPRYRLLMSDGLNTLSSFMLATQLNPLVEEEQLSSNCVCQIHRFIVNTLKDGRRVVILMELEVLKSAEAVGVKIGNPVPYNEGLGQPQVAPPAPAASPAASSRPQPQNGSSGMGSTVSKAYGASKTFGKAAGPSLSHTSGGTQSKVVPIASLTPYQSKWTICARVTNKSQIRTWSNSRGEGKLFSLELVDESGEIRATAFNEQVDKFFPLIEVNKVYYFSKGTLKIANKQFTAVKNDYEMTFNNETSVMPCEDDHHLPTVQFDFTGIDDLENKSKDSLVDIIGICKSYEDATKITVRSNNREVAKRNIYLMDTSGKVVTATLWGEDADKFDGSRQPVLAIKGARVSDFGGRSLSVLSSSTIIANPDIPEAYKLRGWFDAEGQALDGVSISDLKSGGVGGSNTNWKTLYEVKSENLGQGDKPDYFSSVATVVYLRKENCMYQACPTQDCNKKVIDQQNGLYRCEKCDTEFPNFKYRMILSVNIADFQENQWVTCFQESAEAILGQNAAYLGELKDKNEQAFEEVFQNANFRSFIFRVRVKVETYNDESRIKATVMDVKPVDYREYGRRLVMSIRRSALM
Chain of hRPA (P15927 whole entry, chain 2 of 3): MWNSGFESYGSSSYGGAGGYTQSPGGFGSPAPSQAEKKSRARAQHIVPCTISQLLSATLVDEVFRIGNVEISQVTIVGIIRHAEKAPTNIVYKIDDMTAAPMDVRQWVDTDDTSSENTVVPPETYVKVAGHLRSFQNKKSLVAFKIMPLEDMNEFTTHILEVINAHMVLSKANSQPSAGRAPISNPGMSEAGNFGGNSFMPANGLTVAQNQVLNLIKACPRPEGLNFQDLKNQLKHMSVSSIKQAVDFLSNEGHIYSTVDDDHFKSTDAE
Chain of hRPA (P35244 whole entry, chain 3 of 3): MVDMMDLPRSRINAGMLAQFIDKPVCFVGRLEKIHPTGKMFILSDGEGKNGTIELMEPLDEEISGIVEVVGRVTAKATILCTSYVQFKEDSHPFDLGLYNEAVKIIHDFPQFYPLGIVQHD

UUUUUUUUUUUUUUUUUUUUUUUUUUUUUUUUUUUUUUUUUUUUUUUUUU (ssRNA) [U50]: binds (RPA (yeast) [1]); binds (SSB [2]).

B1: dT60 (ssDNA)
DNA: TTTTTTTTTTTTTTTTTTTTTTTTTTTTTTTTTTTTTTTTTTTTTTTTTTTTTTTTTTTT
B1: binds (SSB [3]); binds (RPA (yeast) [4]).

TTTTTTTTTTTTTTTTTTTTTTTTTTTTTTTTTTTTTTTT (ssDNA) [dT40]: binds (SSB [5]); binds (RPA (yeast) [6]); binds (hRPA).

TTTTTTTTTTTTTTTTTTTTTTTTTTTTTTTTTTTTTTTT (ssDNA) [dT40-Cy3]: binds (SSB [7]); binds (RPA (yeast) [8]).

TTTTTTTTTTTTTTTTTTTTTTTTTTTTTT (ssDNA) [dT30]: binds (RPA (yeast) [9]).
